Where two headings read alike, the source gives them in different places. One block for each molecule: values may come before it. Non-standard residues stand in square brackets, D forms with d. No end group written: not given here. Lys(Me3) = C[N+](C)(C)CCCC[C@H](N)C(=O)O
Columns and labels:
Test in all cases: ITC
BPTF PHD domain Y23M [1] = target: BPTF PHD domain Y23M
[2] = target: DIDO1 (death inducer obliterator 1) PHD domain, wild type
[3] = target: TAF3 PHD domain M900Q/M907Q (the paper's wild-type construct) (UniProt Q5VWG9)
[4] = target: TAF3 PHD domain M900Q/M907Q with norleucine in place of M882 (Nle mutant) (UniProt Q5VWG9)
[5] = target: TAF3 PHD domain M900Q/M907Q with selenomethionine in place of M882 (SeMet mutant) (UniProt Q5VWG9)
BPTF PHD domain Y23M [6] = target: BPTF PHD domain Y23M; remark: listed apart in the source
DIDO1 PHD domain M35C = DIDO1 PHD domain M35C (UniProt Q9BTC0)
[7] = target: DIDO1 PHD domain with selenomethionine in place of methionine (SeMet mutant) (UniProt Q9BTC0)
TAF3 PHD domain M882A = TAF3 PHD domain M882A (UniProt Q5VWG9)
[8] = target: TAF3 PHD domain M900Q/M907Q (the paper's wild-type construct) (UniProt Q5VWG9); remark: listed apart in the source
[9] = target: TAF3 PHD domain M900Q/M907Q with norleucine in place of M882 (Nle mutant) (UniProt Q5VWG9); remark: listed apart in the source
[10] = target: TAF3 PHD domain M900Q/M907Q with selenomethionine in place of M882 (SeMet mutant) (UniProt Q5VWG9); remark: listed apart in the source
[11] = target: T1, DIDO1 (death inducer obliterator 1) PHD domain, wild type (UniProt Q9BTC0 266-325)
T1 sequence: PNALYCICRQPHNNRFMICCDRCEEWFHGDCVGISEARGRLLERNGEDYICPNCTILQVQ

Kd [3]: 10.7 µM | Kd [4]: 13.7 µM | Kd [5]: 8.3 µM
Molecule: histone H3 tail peptide with tert-butyl norleucine in place of K4me3 (H3K4tBuNle), ARTX… with X = tBuNle

Kd (BPTF PHD domain Y23M [6]): 7.5 µM | Kd (DIDO1 PHD domain M35C): 36 µM | Kd [7]: 4.2 µM | Kd (TAF3 PHD domain M882A): 120 µM | Kd [8]: 1.05 µM | Kd [9]: 1.7 µM | Kd [10]: 0.84 µM
Molecule: ART[Lys(Me3)]QTARKSTGGY [histone H3 tail peptide trimethylated at K4 (H3K4me3), ARTX… with X = Kme3]

More lines, now with the values behind:

Molecule: Histone H3 peptide with tert-butyl norleucine in place of K4 (H3K4tBuNle 1-13, with a C-terminal Tyr)
Kd (BPTF PHD domain Y23M [1]): 7.48 µM | Kd [2]: 2.9 µM

Molecule: ART[Lys(Me3)]QTARKSTGGY [histone H3 tail peptide trimethylated at K4 (H3K4me3), ARTXQTARKSTGGY with X = Kme3]
Kd [11]: 2.28 µM

Source: article PMC8246079 (Chemical Science, 2021)
